Assay results published in patent publication US6011020.
pKd: −log10 of the molar value. Where two headings read alike, the source gives them in different places.

Molecular target: bFGF (basic fibroblast growth factor) (UniProt P09038)
Sequence (P09038 143-288): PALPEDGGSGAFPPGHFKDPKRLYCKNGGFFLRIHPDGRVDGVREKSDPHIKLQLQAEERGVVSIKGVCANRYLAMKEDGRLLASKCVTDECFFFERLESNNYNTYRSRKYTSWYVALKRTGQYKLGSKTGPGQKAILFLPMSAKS

GGGCTTTGTAAAACCCCGC [225T3]
pKd (reference ligand, same affinity as PEG and cholesterol conjugates, binding assay type not stated): 9.00

GGGCTTTGTAAAACCCCGC [225t3-Chol]
pKd (3'-tetraethyleneglycol cholesterol, binding assay with 5'-32P-labeled conjugate, assay type not stated): 9.00

GGGCTTTGTAAAACCCCGC [225T3N-PEG-3400]
pKd (3'-amino-modifier C7 conjugated to PEG 3400 [3' end after position 19: NN = non-nucleotide 3'-amino-modifier C7 and PEG 3400, left out], binding assay with 5'-32P-labeled conjugate, assay type not stated): 9.00
